The data set deals with the molecule itself. Description: cryo-EM structure; single-particle cryo-EM of purified EXTL3ΔN at 0.1-0.4 mg/ml, C2 symmetry; apo (2.4 Å) and with 10 mM UDP and 2.5 mM MnCl2 (2.9 Å); buffer 50 mM Tris-HCl pH 6.8, 100 mM NaCl, 50 mM KCl.

B1: EXTL3ΔN, soluble form of human exostosin-like 3 (EXTL3) lacking the first 51 amino acids (enzyme, UniProt O43909 52-919, looked up)
chain: TTLDEADEAGKRIFGPRVGNELCEVKHVLDLCRIRESVSEELLQLEAKRQELNSEIAKLNLKIEACKKSIENAKQDLLQLKNVISQTEHSYKELMAQNQPKLSLPIRLLPEKDDAGLPPPKATRGCRLHNCFDYSRCPLTSGFPVYVYDSDQFVFGSYLDPLVKQAFQATARANVYVTENADIACLYVILVGEMQEPVVLRPAELEKQLYSLPHWRTDGHNHVIINLSRKSDTQNLLYNVSTGRAMVAQSTFYTVQYRPGFDLVVSPLVHAMSEPNFMEIPPQVPVKRKYLFTFQGEKIESLRSSLQEARSFEEEMEGDPPADYDDRIIATLKAVQDSKLDQVLVEFTCKNQPKPSLPTEWALCGEREDRLELLKLSTFALIITPGDPRLVISSGCATRLFEALEVGAVPVVLGEQVQLPYQDMLQWNEAALVVPKPRVTEVHFLLRSLSDSDLLAMRRQGRFLWETYFSTADSIFNTVLAMIRTRIQIPAAPIREEAAAEIPHRSGKAAGTDPNMADNGDLDLGPVETEPPYASPRYLRNFTLTVTDFYRSWNCAPGPFHLFPHTPFDPVLPSEAKFLGSGTGFRPIGGGAGGSGKEFQAALGGNVPREQFTVVMLTYEREEVLMNSLERLNGLPYLNKVVVVWNSPKLPSEDLLWPDIGVPIMVVRTEKNSLNNRFLPWNEIETEAILSIDDDAHLRHDEIMFGFRVWREARDRIVGFPGRYHAWDIPHQSWLYNSNYSCELSMVLTGAAFFHKYYAYLYSYVMPQAIRDMVDEYINCEDIAMNFLVSHITRKPPIKVTSRWTFRCPGCPQALSHDDSHFHERHKCINFFVKVYGYMPLLYTQFRVDSVLFKTRLPHDKTKCFKFI
modifications: partial N-glycans modelled at Asn592 and Asn790; intermolecular disulfide bridges between Cys793 and Cys915
notes: human exostosin-like 3 (EXTL3), amino acids 52-919; holds the predicted coiled coil, the GT47 domain, the inter-domain linker and the GT64 domain; lacks the transmembrane helix; Only the 170 kDa globular part (GT47, linker, GT64) is seen in the map; the coiled coil is not visible; also called EXTL3∆N; secretory EXTL3∆N
For the protein B1, the “stoichiometry N” value is 2.

The values above are taken from publication PMC9178029, “The structure of EXTL3 helps to explain the different roles of bi-domain exostosins in heparan sulfate synthesis” (Nature Communications, 2022).
